# Test results: publication PMC5560242
# Like-named read-outs stand apart in the source and are kept apart here.
# T1: MBNL1-zf12 (Homo sapiens, UniProt Q9NR56 1-92)
# T1 sequence: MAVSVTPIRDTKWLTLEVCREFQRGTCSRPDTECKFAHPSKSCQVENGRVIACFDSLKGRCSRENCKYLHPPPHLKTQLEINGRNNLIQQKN
# What was measured:
# MBNL1-zf12 [1] = biological target: T1, MBNL1-zf12; experiment: NMR HSQC titration
# MBNL1-zf12 [2] = biological target: T1, MBNL1-zf12; experiment: BLI
# MBNL1-zf12 [3] = biological target: T1, MBNL1-zf12; experiment: BLI; remark: listed apart in the source
binder,measurement,setting,value
CUCGCUUUUCCCC (ssRNA) [hcTnT13],binding result,MBNL1-zf12 [1],binds
GUCUCGCUUUUCCCC (ssRNA) [hcTnT15],Kd,MBNL1-zf12 [2],130 nM
GUCUCGCUGUUCCCC (ssRNA) [hcTnT15m (U103G)],Kd,MBNL1-zf12 [3],500 nM
